Experimental data published in PMC5707625 (Biochemistry, 2017).

Legend:
BlaC [1] = biological target: T1, BlaC (Mycobacterium tuberculosis, UniProt P9WKD3); assay: […] Å crystal structure; format: binding
BlaC [2] = biological target: T1, BlaC; assay: biochemical; format: binding
[3] = tested on: O=C(Cc1cccs1)N[C@@H]1C(=O)N2C(C(=O)O)=C(/C=C/c3ccc([N+](=O)[O-])cc3[N+](=O)[O-])CS[C@H]12; assay: purified protein; settings: pH 6.0

T1 sequence (P9WKD3 43-307 limits assumed): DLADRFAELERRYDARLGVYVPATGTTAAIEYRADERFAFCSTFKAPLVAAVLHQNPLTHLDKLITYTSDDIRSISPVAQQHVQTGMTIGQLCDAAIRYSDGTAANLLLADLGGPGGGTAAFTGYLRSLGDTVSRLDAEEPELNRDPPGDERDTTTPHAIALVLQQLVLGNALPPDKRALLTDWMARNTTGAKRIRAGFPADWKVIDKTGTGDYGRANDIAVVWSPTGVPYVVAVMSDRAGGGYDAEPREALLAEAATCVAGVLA

In the case of CC(=O)O [acetate], the “2.1 Å crystal structure” value (BlaC [1]) is reported as “acetate occupies the carboxylate binding site and forms hydrogen bridges with residues Ser-130, Thr-235, and Thr-237”.

For O=P(O)(O)O [phosphate], the Kd (BlaC [2]) was 27 ± 11 mM.

Work on BlaC (Mycobacterium tuberculosis H37Rv) yielded a Km [3] of 38 ± 7 µM, a kcat [3] of 69 ± 1 s⁻¹ and a kcat/Km [3] of 1.8e+06 ± 300000 M⁻¹ s⁻¹.
